T1: TNFR1 (Homo sapiens, UniProt P19438)
T1 chain: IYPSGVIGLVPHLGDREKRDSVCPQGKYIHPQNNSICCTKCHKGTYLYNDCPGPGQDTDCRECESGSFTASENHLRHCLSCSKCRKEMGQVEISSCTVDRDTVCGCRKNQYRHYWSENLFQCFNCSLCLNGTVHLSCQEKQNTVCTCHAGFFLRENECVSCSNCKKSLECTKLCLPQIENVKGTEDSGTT


Molecular target: T1, TNFR1
Experiment: yeast display SC50

| apparent Kd (screen) [nM] | Binder |
| --- | --- |
| 2.48 | V71S (designed binder) MTLQELLREEALRRAEAEAFRYALELLAEKFPEQKEYLLDLAEEIESQIRSLSGVDVEDVRKFLDKEWAWSKELLAEHPAELAEVEAARAARLAELRAEVEAKVAA |
| 2.73 | E67K (designed binder) MTLQELLREEALRRAEAEAFRYALELLAEKFPEQKEYLLDLAEEIESQIRSLSGVDVEDVRKFLDKKWAWVKELLAEHPAELAEVEAARAARLAELRAEVEAKVAA |
| 0.405 | E9C (designed binder) MTLQELLRCEALRRAEAEAFRYALELLAEKFPEQKEYLLDLAEEIESQIRSLSGVDVEDVRKFLDKEWAWVKELLAEHPAELAEVEAARAARLAELRAEVEAKVAA |
| 0.539 | E43V (designed binder) MTLQELLREEALRRAEAEAFRYALELLAEKFPEQKEYLLDLAVEIESQIRSLSGVDVEDVRKFLDKEWAWVKELLAEHPAELAEVEAARAARLAELRAEVEAKVAA |
| 0.869 | A80V (designed binder) MTLQELLREEALRRAEAEAFRYALELLAEKFPEQKEYLLDLAEEIESQIRSLSGVDVEDVRKFLDKEWAWVKELLAEHPVELAEVEAARAARLAELRAEVEAKVAA |
| 0.593 | S51P (designed binder) MTLQELLREEALRRAEAEAFRYALELLAEKFPEQKEYLLDLAEEIESQIRPLSGVDVEDVRKFLDKEWAWVKELLAEHPAELAEVEAARAARLAELRAEVEAKVAA |
| 0.539 | E58D (designed binder) MTLQELLREEALRRAEAEAFRYALELLAEKFPEQKEYLLDLAEEIESQIRSLSGVDVDDVRKFLDKEWAWVKELLAEHPAELAEVEAARAARLAELRAEVEAKVAA |
| 24.4 | G54C (designed binder) MTLQELLREEALRRAEAEAFRYALELLAEKFPEQKEYLLDLAEEIESQIRSLSCVDVEDVRKFLDKEWAWVKELLAEHPAELAEVEAARAARLAELRAEVEAKVAA |
| 0.718 | A83V (designed binder) MTLQELLREEALRRAEAEAFRYALELLAEKFPEQKEYLLDLAEEIESQIRSLSGVDVEDVRKFLDKEWAWVKELLAEHPAELVEVEAARAARLAELRAEVEAKVAA |
| 0.539 | A87V (designed binder) MTLQELLREEALRRAEAEAFRYALELLAEKFPEQKEYLLDLAEEIESQIRSLSGVDVEDVRKFLDKEWAWVKELLAEHPAELAEVEVARAARLAELRAEVEAKVAA |
| 0.869 | A105W (designed binder) MTLQELLREEALRRAEAEAFRYALELLAEKFPEQKEYLLDLAEEIESQIRSLSGVDVEDVRKFLDKEWAWVKELLAEHPAELAEVEAARAARLAELRAEVEAKVWA |
| 0.79 | E81C (designed binder) MTLQELLREEALRRAEAEAFRYALELLAEKFPEQKEYLLDLAEEIESQIRSLSGVDVEDVRKFLDKEWAWVKELLAEHPACLAEVEAARAARLAELRAEVEAKVAA |
| 0.956 | G54S (designed binder) MTLQELLREEALRRAEAEAFRYALELLAEKFPEQKEYLLDLAEEIESQIRSLSSVDVEDVRKFLDKEWAWVKELLAEHPAELAEVEAARAARLAELRAEVEAKVAA |
| 2.05 | A76P (designed binder) MTLQELLREEALRRAEAEAFRYALELLAEKFPEQKEYLLDLAEEIESQIRSLSGVDVEDVRKFLDKEWAWVKELLPEHPAELAEVEAARAARLAELRAEVEAKVAA |
| 1.27 | S51K (designed binder) MTLQELLREEALRRAEAEAFRYALELLAEKFPEQKEYLLDLAEEIESQIRKLSGVDVEDVRKFLDKEWAWVKELLAEHPAELAEVEAARAARLAELRAEVEAKVAA |
| 0.653 | R97L (designed binder) MTLQELLREEALRRAEAEAFRYALELLAEKFPEQKEYLLDLAEEIESQIRSLSGVDVEDVRKFLDKEWAWVKELLAEHPAELAEVEAARAARLAELLAEVEAKVAA |
| 0.539 | E36C (designed binder) MTLQELLREEALRRAEAEAFRYALELLAEKFPEQKCYLLDLAEEIESQIRSLSGVDVEDVRKFLDKEWAWVKELLAEHPAELAEVEAARAARLAELRAEVEAKVAA |
| 0.653 | L64M (designed binder) MTLQELLREEALRRAEAEAFRYALELLAEKFPEQKEYLLDLAEEIESQIRSLSGVDVEDVRKFMDKEWAWVKELLAEHPAELAEVEAARAARLAELRAEVEAKVAA |

| apparent Kd (screen) [nM] | Binder |
| --- | --- |
| 1.86 | Q48R (designed binder) MTLQELLREEALRRAEAEAFRYALELLAEKFPEQKEYLLDLAEEIESRIRSLSGVDVEDVRKFLDKEWAWVKELLAEHPAELAEVEAARAARLAELRAEVEAKVAA |
| 22.2 | L3Q (designed binder) MTQQELLREEALRRAEAEAFRYALELLAEKFPEQKEYLLDLAEEIESQIRSLSGVDVEDVRKFLDKEWAWVKELLAEHPAELAEVEAARAARLAELRAEVEAKVAA |
| 0.869 | K72R (designed binder) MTLQELLREEALRRAEAEAFRYALELLAEKFPEQKEYLLDLAEEIESQIRSLSGVDVEDVRKFLDKEWAWVRELLAEHPAELAEVEAARAARLAELRAEVEAKVAA |
| 0.49 | A19C (designed binder) MTLQELLREEALRRAEAECFRYALELLAEKFPEQKEYLLDLAEEIESQIRSLSGVDVEDVRKFLDKEWAWVKELLAEHPAELAEVEAARAARLAELRAEVEAKVAA |
| 0.869 | F31L (designed binder) MTLQELLREEALRRAEAEAFRYALELLAEKLPEQKEYLLDLAEEIESQIRSLSGVDVEDVRKFLDKEWAWVKELLAEHPAELAEVEAARAARLAELRAEVEAKVAA |
| 0.446 | A80W (designed binder) MTLQELLREEALRRAEAEAFRYALELLAEKFPEQKEYLLDLAEEIESQIRSLSGVDVEDVRKFLDKEWAWVKELLAEHPWELAEVEAARAARLAELRAEVEAKVAA |
| 0.593 | R61T (designed binder) MTLQELLREEALRRAEAEAFRYALELLAEKFPEQKEYLLDLAEEIESQIRSLSGVDVEDVTKFLDKEWAWVKELLAEHPAELAEVEAARAARLAELRAEVEAKVAA |
| 1.16 | R50F (designed binder) MTLQELLREEALRRAEAEAFRYALELLAEKFPEQKEYLLDLAEEIESQIFSLSGVDVEDVRKFLDKEWAWVKELLAEHPAELAEVEAARAARLAELRAEVEAKVAA |
| 0.49 | M1T (designed binder) TTLQELLREEALRRAEAEAFRYALELLAEKFPEQKEYLLDLAEEIESQIRSLSGVDVEDVRKFLDKEWAWVKELLAEHPAELAEVEAARAARLAELRAEVEAKVAA |
| 0.593 | E95D (designed binder) MTLQELLREEALRRAEAEAFRYALELLAEKFPEQKEYLLDLAEEIESQIRSLSGVDVEDVRKFLDKEWAWVKELLAEHPAELAEVEAARAARLADLRAEVEAKVAA |
| 11.4 | Y37H (designed binder) MTLQELLREEALRRAEAEAFRYALELLAEKFPEQKEHLLDLAEEIESQIRSLSGVDVEDVRKFLDKEWAWVKELLAEHPAELAEVEAARAARLAELRAEVEAKVAA |
| 0.956 | R92A (designed binder) MTLQELLREEALRRAEAEAFRYALELLAEKFPEQKEYLLDLAEEIESQIRSLSGVDVEDVRKFLDKEWAWVKELLAEHPAELAEVEAARAAALAELRAEVEAKVAA |
| 0.869 | A90F (designed binder) MTLQELLREEALRRAEAEAFRYALELLAEKFPEQKEYLLDLAEEIESQIRSLSGVDVEDVRKFLDKEWAWVKELLAEHPAELAEVEAARFARLAELRAEVEAKVAA |
| 0.79 | L74H (designed binder) MTLQELLREEALRRAEAEAFRYALELLAEKFPEQKEYLLDLAEEIESQIRSLSGVDVEDVRKFLDKEWAWVKEHLAEHPAELAEVEAARAARLAELRAEVEAKVAA |
| 1.27 | E86R (designed binder) MTLQELLREEALRRAEAEAFRYALELLAEKFPEQKEYLLDLAEEIESQIRSLSGVDVEDVRKFLDKEWAWVKELLAEHPAELAEVRAARAARLAELRAEVEAKVAA |
| 2.05 | S53R (designed binder) MTLQELLREEALRRAEAEAFRYALELLAEKFPEQKEYLLDLAEEIESQIRSLRGVDVEDVRKFLDKEWAWVKELLAEHPAELAEVEAARAARLAELRAEVEAKVAA |
| 0.405 | S51T (designed binder) MTLQELLREEALRRAEAEAFRYALELLAEKFPEQKEYLLDLAEEIESQIRTLSGVDVEDVRKFLDKEWAWVKELLAEHPAELAEVEAARAARLAELRAEVEAKVAA |
